From IntAct's records for PubMed 22580824 come the findings set out here.

B1: Kinesin-like protein KIF23 (Homo sapiens), Q02241 (parent)
chain: MKSARAKTPRKPTVKKGSQTNLKDPVGVYCRVRPLGFPDQECCIEVINNTTVQLHTPEGYRLNRNGDYKETQYSFKQVFGTHTTQKELFDVVANPLVNDLIHGKNGLLFTYGVTGSGKTHTMTGSPGEGGLLPRCLDMIFNSIGSFQAKRYVFKSNDRNSMDIQCEVDALLERQKREAMPNPKTSSSKRQVDPEFADMITVQEFCKAEEVDEDSVYGVFVSYIEIYNNYIYDLLEEVPFDPIKPKPPQSKLLREDKNHNMYVAGCTEVEVKSTEEAFEVFWRGQKKRRIANTHLNRESSRSHSVFNIKLVQAPLDADGDNVLQEKEQITISQLSLVDLAGSERTNRTRAEGNRLREAGNINQSLMTLRTCMDVLRENQMYGTNKMVPYRDSKLTHLFKNYFDGEGKVRMIVCVNPKAEDYEENLQVMRFAEVTQEVEVARPVDKAICGLTPGRRYRNQPRGPVGNEPLVTDVVLQSFPPLPSCEILDINDEQTLPRLIEALEKRHNLRQMMIDEFNKQSNAFKALLQEFDNAVLSKENHMQGKLNEKEKMISGQKLEIERLEKKNKTLEYKIEILEKTTTIYEEDKRNLQQELETQNQKLQRQFSDKRRLEARLQGMVTETTMKWEKECERRVAAKQLEMQNKLWVKDEKLKQLKAIVTEPKTEKPERPSRERDREKVTQRSVSPSPVPLSSNYIAQISNGQQLMSQPQLHRRSNSCSSISVASCISEWEQKIPTYNTPLKVTSIARRRQQEPGQSKTCIVSDRRRGMYWTEGREVVPTFRNEIEIEEDHCGRLLFQPDQNAPPIRLRHRRSRSAGDRWVDHKPASNMQTETVMQPHVPHAITVSVANEKALAKCEKYMLTHQELASDGEIETKLIKGDIYKTRGGGQSVQFTDIETLKQESPNGSRKRRSSTVAPAQPDGAESEWTDVETRCSVAVEMRAGSQLGPGYQHHAQPKRKKP
partner: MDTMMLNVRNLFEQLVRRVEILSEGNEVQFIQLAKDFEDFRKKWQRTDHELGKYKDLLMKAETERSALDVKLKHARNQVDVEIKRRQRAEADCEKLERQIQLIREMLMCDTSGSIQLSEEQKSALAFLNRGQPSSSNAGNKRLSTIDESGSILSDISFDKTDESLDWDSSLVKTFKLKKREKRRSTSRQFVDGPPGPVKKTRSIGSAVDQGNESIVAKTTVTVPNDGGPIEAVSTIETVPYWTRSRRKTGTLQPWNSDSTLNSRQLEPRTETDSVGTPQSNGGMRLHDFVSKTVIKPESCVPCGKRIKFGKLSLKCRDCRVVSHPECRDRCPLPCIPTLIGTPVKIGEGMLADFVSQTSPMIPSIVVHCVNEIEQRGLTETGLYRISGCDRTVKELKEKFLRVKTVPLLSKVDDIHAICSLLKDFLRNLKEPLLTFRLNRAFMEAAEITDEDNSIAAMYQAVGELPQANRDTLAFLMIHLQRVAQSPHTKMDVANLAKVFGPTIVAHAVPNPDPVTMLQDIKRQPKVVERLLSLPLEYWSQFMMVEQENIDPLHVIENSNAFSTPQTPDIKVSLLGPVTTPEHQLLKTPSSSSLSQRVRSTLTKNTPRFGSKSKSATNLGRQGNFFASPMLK
B2: Kinesin-like protein KIF23 (Homo sapiens), Q02241 (parent)
chain: B1 chain
B3: ADP-ribosylation factor 6 (Homo sapiens), P62330 (parent)
chain: MGKVLSKIFGNKEMRILMLGLDAAGKTTILYKLKLGQSVTTIPTVGFNVETVTYKNVKFNVWDVGGQDKIRPLWRHYYTGTQGLIFVVDCADRDRIDEARQELHRIINDREMRDAIILIFANKQDLPDAMKPHEIQEKLGLTRIRDRNWYVQPSCATSGDGLYEGLTWLTSNYKS
partner: B1 chain

Variants of B1 are the subject of one test. The following applies: with rgap1_human RACGAP1, Q9H0H5.
On to S814A, for which the “effect of a mutation on the interaction” value is “increasing interaction”.

In another test the parent is B1. The following applies: with rgap1_human RACGAP1, Q9H0H5. The source holds these as a separate data set.
In the case of V890A, the “effect of a mutation on the interaction” value was “increasing interaction”.

Variants of B2 are the subject of the next test. The following applies: with arf6_human ARF6, P62330.
In the case of L860A, the “effect of a mutation on the interaction” value is “disrupting interaction”.

Another test covers variants of B2. The following applies: with arf6_human ARF6, P62330. This is another data set of the same source.
L860A: the “effect of a mutation on the interaction” value was “decreasing interaction”.

In a further test the parent is B2. The following applies: with arf6_human ARF6, P62330. This is another data set of the same source.
In the case of E896A, the “effect of a mutation on the interaction” value is reported as “disrupting interaction”.

The next test covers variants of B2. The following applies: with arf6_human ARF6, P62330. The source holds these as a separate data set.
Take T779A: the “effect of a mutation on the interaction” value is “disrupting interaction”.

The variants in another test derive from B2. The following applies: with arf6_human ARF6, P62330. The source holds these as a separate data set.
Turning to T779A, the “effect of a mutation on the interaction” value is reported as “decreasing interaction”.

The variants in another test derive from B2. The following applies: with arf6_human ARF6, P62330. The source holds these as a separate data set.
On to T873A, for which the “effect of a mutation on the interaction” value was “disrupting interaction”.

The variants in a further test derive from B2. The following applies: with arf6_human ARF6, P62330. The source holds these as a separate data set.
With T873A, the “effect of a mutation on the interaction” value was “decreasing interaction”.

The next test covers variants of B2. The following applies: with arf6_human ARF6, P62330. The source holds these as a separate data set.
On to F892A, for which the “effect of a mutation on the interaction” value is given as “disrupting interaction”.

In the next test the parent is B2. The following applies: with arf6_human ARF6, P62330. The source holds these as a separate data set.
On to K877A, for which the “effect of a mutation on the interaction” value is listed as “disrupting interaction”.

The variants in the next test derive from B2. The following applies: with arf6_human ARF6, P62330. The source holds these as a separate data set.
For K877A, the “effect of a mutation on the interaction” value is on record as “decreasing interaction”.

The variants in the next test derive from B2. The following applies: with arf6_human ARF6, P62330. This is another data set of the same source.
In the case of E864A, the “effect of a mutation on the interaction” value is on record as “disrupting interaction”.

Variants of B2 are the subject of another test. The following applies: with arf6_human ARF6, P62330. This is another data set of the same source.
L794A: the “effect of a mutation on the interaction” value is on record as “disrupting interaction”.

A further test covers variants of B2. The following applies: with arf6_human ARF6, P62330. This is another data set of the same source.
Regarding V890A, the “effect of a mutation on the interaction” value is recorded as “disrupting interaction”.

The variants in another test derive from B2. The following applies: with arf6_human ARF6, P62330. This is another data set of the same source.
For V890A, the “effect of a mutation on the interaction” value was “decreasing interaction”.

Another test covers variants of B2. The following applies: with arf6_human ARF6, P62330. This is another data set of the same source.
In the case of Y858A, the “effect of a mutation on the interaction” value is recorded as “disrupting interaction”.

A further test covers variants of B2. The following applies: with arf6_human ARF6, P62330. This is another data set of the same source.
In the case of Q863A, the “effect of a mutation on the interaction” value was “disrupting interaction”.

In a further test the parent is B2. The following applies: with arf6_human ARF6, P62330. The source holds these as a separate data set.
In the case of Q863A, the “effect of a mutation on the interaction” value was “decreasing interaction”.

The variants in a further test derive from B3. The following applies: with kif23_human KIF23, Q02241.
Take T27N: the “effect of a mutation on the interaction” value was “disrupting interaction”.
